{
  "source": "paper PMC4901313",
  "target": "Gp45, receptor binding protein (RBP) of Staphylococcus aureus phage ϕ11 (Staphylococcus aureus phage ϕ11)",
  "assay": "crystal structure; native crystals, space group P1, 2.20 Å; grown in 0.1 M bicine/Trizma base pH 8.5, 10% w/v PEG 8000, 20% v/v ethylene glycol, 0.12 M monosaccharide-mix at 16 °C; three monomers related by non-crystallographic three-fold symmetry",
  "data": [
    {"substance": "Gp45, receptor binding protein (RBP) of Staphylococcus aureus phage ϕ11 (natural protein)", "values": [
      {"measurement": "stoichiometry N", "value": 3}
    ]}
  ]
}
